Laboratory results taken from article PMC3269305 (Journal of Molecular Biology, 2011).

Target: human eukaryotic translation initiation factor eIF4E (human, UniProt P06730 1-217)
Assay: crystal structure

human eukaryotic translation initiation factor eIF4E, sequence (P06730 whole entry): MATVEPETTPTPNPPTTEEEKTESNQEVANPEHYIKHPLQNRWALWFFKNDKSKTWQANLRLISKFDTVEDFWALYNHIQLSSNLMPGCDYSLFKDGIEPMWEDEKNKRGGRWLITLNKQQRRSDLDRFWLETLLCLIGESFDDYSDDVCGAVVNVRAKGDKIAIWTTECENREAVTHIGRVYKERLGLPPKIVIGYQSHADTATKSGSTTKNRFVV

PGGTRIIYDRKFLMECRNSP [4EBP1 peptide (eIF4E binding site of human 4EBP1, residues 47-66)]: binds.
